Experimental data: paper PMC7545097, “Mapping the native interaction surfaces of PREP1 with PBX1 by cross-linking mass-spectrometry and mutagenesis” (Scientific Reports, 2020)

Assays:
PBX1 Δ77-84 = biological target: T1, PBX1 Δ77-84 (human, UniProt P40424 1-430, Δ77−84); assay: time-resolved fluorescence immunoassay (TR-FIA); plate coated with monoclonal anti-PBX1; PBX1 pre-incubated with PREP1 or MEIS1 for 1 h on ice, 10 µg/mL in 1% BSA PBS, 1 h at room temperature on the plate; detected with anti-PREP1 or biotinylated anti-MEIS1/2 and Eu^3+ conjugates; normalised to the wild-type protein taken as 1; conditions: both partners purified
T1 construct: PBX1, residues 1-430, with an internal deletion; source: E. coli, purified
T1 sequence (looked up): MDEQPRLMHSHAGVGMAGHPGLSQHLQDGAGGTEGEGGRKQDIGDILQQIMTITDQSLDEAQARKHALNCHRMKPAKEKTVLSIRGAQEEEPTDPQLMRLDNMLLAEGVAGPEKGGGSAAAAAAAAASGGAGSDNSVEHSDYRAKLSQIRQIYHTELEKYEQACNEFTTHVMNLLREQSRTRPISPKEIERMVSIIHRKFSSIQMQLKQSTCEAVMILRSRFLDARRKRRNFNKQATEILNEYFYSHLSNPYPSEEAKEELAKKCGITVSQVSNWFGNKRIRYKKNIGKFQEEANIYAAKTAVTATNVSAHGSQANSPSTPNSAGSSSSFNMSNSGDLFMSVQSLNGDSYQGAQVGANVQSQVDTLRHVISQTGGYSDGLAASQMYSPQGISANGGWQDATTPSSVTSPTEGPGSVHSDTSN

PBX1 Δ105-113 = biological target: T2, PBX1 Δ105-113 (human, UniProt P40424 1-430, Δ105-113); assay: as above; conditions: both partners purified
T2 construct: PBX1, residues 1-430, with an internal deletion; source: E. coli, purified
T2 sequence (looked up): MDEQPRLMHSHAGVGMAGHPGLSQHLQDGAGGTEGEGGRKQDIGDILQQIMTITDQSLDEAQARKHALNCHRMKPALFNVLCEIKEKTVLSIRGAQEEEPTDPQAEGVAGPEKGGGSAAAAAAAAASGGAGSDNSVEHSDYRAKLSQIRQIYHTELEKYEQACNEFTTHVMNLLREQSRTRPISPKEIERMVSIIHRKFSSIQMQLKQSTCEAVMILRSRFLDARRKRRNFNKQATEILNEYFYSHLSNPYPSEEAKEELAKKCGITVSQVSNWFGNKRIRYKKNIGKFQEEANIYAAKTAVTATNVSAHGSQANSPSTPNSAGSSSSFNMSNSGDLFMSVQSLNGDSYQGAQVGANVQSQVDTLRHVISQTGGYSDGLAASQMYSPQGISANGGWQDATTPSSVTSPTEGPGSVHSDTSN

PBX1Δ43-55 = biological target: T3, PBX1Δ43-55 (human, UniProt P40424 1-430, Δ43-55); assay: as above; conditions: both partners purified
T3 construct: PBX1, residues 1-430, with an internal deletion; source: E. coli, purified
T3 sequence (looked up): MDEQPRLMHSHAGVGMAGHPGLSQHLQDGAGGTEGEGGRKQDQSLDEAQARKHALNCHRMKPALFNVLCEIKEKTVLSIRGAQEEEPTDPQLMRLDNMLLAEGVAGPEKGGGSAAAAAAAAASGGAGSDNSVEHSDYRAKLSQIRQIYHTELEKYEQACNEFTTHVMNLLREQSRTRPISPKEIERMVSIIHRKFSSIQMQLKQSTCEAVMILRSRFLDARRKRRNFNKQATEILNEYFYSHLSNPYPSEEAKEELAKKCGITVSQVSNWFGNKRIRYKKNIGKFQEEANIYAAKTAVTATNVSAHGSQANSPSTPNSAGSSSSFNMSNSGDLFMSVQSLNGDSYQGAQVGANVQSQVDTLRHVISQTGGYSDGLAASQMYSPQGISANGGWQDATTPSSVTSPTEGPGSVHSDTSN

PBX1Δ197-204 (human) = PBX1Δ197-204 (human) (UniProt P40424); assay: as above
[1] = biological target: T4, PBX1_(1-430), wild-type recombinant (human, UniProt P40424 1-430); assay: ELISA; PBX1 wild-type coated at 0.1 µM in 100 mM Tris–HCl pH 7.5; GST-fused proteins at 0.23 nM to 0.5 µM, 1 h at 37 °C; anti-GST detection; GST signal subtracted; one-site binding model; conditions: both partners purified
T4 construct: also called wild-type PBX1; purified recombinant human PBX1; source: E. coli, purified
T4 sequence (looked up): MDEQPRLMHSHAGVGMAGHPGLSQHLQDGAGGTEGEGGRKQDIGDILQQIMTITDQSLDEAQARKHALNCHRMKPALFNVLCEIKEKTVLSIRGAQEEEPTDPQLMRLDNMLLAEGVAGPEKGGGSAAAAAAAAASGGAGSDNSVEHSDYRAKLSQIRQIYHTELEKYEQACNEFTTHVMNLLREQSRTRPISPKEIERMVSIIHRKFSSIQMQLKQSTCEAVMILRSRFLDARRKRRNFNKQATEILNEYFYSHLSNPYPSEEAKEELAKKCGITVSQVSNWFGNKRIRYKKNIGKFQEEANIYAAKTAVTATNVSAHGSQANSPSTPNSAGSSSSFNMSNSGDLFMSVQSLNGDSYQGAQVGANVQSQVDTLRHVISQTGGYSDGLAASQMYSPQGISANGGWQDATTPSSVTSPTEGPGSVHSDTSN

PREP1_(1-344) = biological target: T5, PREP1_(1-344) (UniProt P55347 1-344); assay: cross-linking; purified complex at 1 mg/ml in 50 mM borate-buffered saline, 1 mM BS^3, 1 h at room temperature; SDS-PAGE, in-gel Glu-C and trypsin digestion, nLC-ESI-MS/MS, pLink 2; two biological replicates; conditions: both partners purified
T5 construct: PREP1 (PKNOX1), residues 1-344, lacking the C-terminal region; Second cassette of the di-cistronic vector pGEX-6P-2RBS; also called PKNOX1; C-terminal truncated PREP1; source: E. coli, co-expressed with PBX1(1-308), purified as a complex (cation exchange, SEC on Superose 6)
T5 sequence (looked up): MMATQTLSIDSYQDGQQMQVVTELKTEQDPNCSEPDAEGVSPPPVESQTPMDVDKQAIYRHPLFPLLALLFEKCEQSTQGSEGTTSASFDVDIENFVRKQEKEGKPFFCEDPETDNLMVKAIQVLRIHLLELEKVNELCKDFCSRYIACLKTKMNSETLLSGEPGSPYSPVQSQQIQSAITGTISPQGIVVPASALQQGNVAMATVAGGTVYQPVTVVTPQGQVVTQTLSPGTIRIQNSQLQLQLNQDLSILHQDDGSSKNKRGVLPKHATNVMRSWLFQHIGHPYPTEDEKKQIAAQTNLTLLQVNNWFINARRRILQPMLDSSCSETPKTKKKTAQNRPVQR

[2] = biological target: T6, full-length MEIS1 (MEIS1_(1-390)) in the purified MEIS1-PBX1 complex (UniProt O00470 1-390); assay: as above; conditions: both partners purified
T6 construct: MEIS1, full length, residues 1-390; source: E. coli, purified as a complex with PBX1(1-308)
T6 sequence (looked up): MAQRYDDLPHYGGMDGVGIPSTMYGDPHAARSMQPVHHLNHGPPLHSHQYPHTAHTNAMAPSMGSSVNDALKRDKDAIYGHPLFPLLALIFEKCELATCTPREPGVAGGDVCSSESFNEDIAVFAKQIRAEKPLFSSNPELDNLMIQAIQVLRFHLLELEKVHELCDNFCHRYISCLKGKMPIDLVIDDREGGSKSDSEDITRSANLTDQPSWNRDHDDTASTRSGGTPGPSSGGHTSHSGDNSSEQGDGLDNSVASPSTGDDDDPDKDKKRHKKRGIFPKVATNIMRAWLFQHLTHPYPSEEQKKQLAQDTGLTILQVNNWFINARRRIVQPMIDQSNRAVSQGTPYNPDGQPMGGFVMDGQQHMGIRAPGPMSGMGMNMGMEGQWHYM

B1: MEIS1_(1-390), wild-type recombinant (TR-FIA) (natural protein, UniProt O00470 1-390, looked up)
chain: MAQRYDDLPHYGGMDGVGIPSTMYGDPHAARSMQPVHHLNHGPPLHSHQYPHTAHTNAMAPSMGSSVNDALKRDKDAIYGHPLFPLLALIFEKCELATCTPREPGVAGGDVCSSESFNEDIAVFAKQIRAEKPLFSSNPELDNLMIQAIQVLRFHLLELEKVHELCDNFCHRYISCLKGKMPIDLVIDDREGGSKSDSEDITRSANLTDQPSWNRDHDDTASTRSGGTPGPSSGGHTSHSGDNSSEQGDGLDNSVASPSTGDDDDPDKDKKRHKKRGIFPKVATNIMRAWLFQHLTHPYPSEEQKKQLAQDTGLTILQVNNWFINARRRIVQPMIDQSNRAVSQGTPYNPDGQPMGGFVMDGQQHMGIRAPGPMSGMGMNMGMEGQWHYM
notes: MEIS1, full length, residues 1-390; also called wild-type MEIS1; source: E. coli, purified
binding relative to wild type (PBX1 Δ77-84): 35%
binding result (PBX1 Δ105-113): binds
binding relative to wild type (PBX1Δ43-55): 60%
binding relative to wild type (PBX1Δ197-204 (human)): 45%

B2: GST-fused wild-type MEIS1 (natural protein, UniProt O00470 1-390, looked up)
chain: MAQRYDDLPHYGGMDGVGIPSTMYGDPHAARSMQPVHHLNHGPPLHSHQYPHTAHTNAMAPSMGSSVNDALKRDKDAIYGHPLFPLLALIFEKCELATCTPREPGVAGGDVCSSESFNEDIAVFAKQIRAEKPLFSSNPELDNLMIQAIQVLRFHLLELEKVHELCDNFCHRYISCLKGKMPIDLVIDDREGGSKSDSEDITRSANLTDQPSWNRDHDDTASTRSGGTPGPSSGGHTSHSGDNSSEQGDGLDNSVASPSTGDDDDPDKDKKRHKKRGIFPKVATNIMRAWLFQHLTHPYPSEEQKKQLAQDTGLTILQVNNWFINARRRIVQPMIDQSNRAVSQGTPYNPDGQPMGGFVMDGQQHMGIRAPGPMSGMGMNMGMEGQWHYM
notes: MEIS1, full length, residues 1-390; Detected through GST in the ELISA; source: E. coli, purified
Kd [1]: 80 ± 17 nM

B3: PBX1_(1-308) (domain or fragment, human, UniProt P40424 1-308, looked up)
chain: MDEQPRLMHSHAGVGMAGHPGLSQHLQDGAGGTEGEGGRKQDIGDILQQIMTITDQSLDEAQARKHALNCHRMKPALFNVLCEIKEKTVLSIRGAQEEEPTDPQLMRLDNMLLAEGVAGPEKGGGSAAAAAAAAASGGAGSDNSVEHSDYRAKLSQIRQIYHTELEKYEQACNEFTTHVMNLLREQSRTRPISPKEIERMVSIIHRKFSSIQMQLKQSTCEAVMILRSRFLDARRKRRNFNKQATEILNEYFYSHLSNPYPSEEAKEELAKKCGITVSQVSNWFGNKRIRYKKNIGKFQEEANIYAAK
notes: PBX1, residues 1-308, lacking the C-terminal region; First cassette of the di-cistronic vector pGEX-6P-2RBS, with PREP1 in the second; also called C-terminal truncated PBX1; source: E. coli, purified as a complex with PREP1(1-344) or with MEIS1 (ion exchange, SEC on Superose 6)
binding result (PREP1_(1-344)): binds
binding result [2]: binds
